Data published in patent US6953577B2, “Human methionine aminopeptidase type 3” (Pharmacia Corporation, priority 1999, dated 2005).

What was measured:
[1] = substrate: CSCC[C@H](N)C(=O)N[C@@H](C)C(=O)N[C@@H](CO)C(=O)O; assay: Methionine aminopeptidase activity assay (methionine release from tripeptide, coupled L-amino acid oxidase/Amplex Red); assay type: biochemical, human; settings: other: hydrolysis of methionine from MAS peptide substrate; pH 7.5
Description: (§1) Hydrogen peroxide, produced by the L-amino acid oxidase reaction, was measured by monitoring the formation of resorufin from Amplex Red in a reaction catalyzed by of horseradish peroxidase. […] The reaction was performed in a 96-well plate format at ambient temperature using the following assay buffer: 20 mM HEPES-Na pH 7.5, 100 mM NaCl, 0.1 mM CoCl2 containing 100 μM Amplex Red, 0.15 U/ml L-amino acid oxidase, 0.5 U/ml horseradish peroxidase.
(§2) The IC50 values were determined under conditions in which enzyme concentration and reaction time were linear.

[2] = substrate: CSCC[C@H](N)C(=O)N[C@@H](C)C(=O)N[C@@H](CO)C(=O)O; assay: purified protein, by the assay type; settings: other: hydrolysis of methionine from MAS peptide substrate; pH 7.5
Description: as §1, §2

Row | Protein | Km [1] | kcat [1] | Km [2] | kcat [2]
1 | recombinant human MetAP-3 (Homo sapiens) (protein, The coding region of hMetAP-3 was also cloned into the EcoRI/HindIII sites of the pET43a vector and expressed as a fusion protein; NusA (N, cleaved yes); 6xHis (N, cleaved yes); made in house; host or cells: E. coli Tuner (DE3)plysS, pET43a) SSPLNHIYLHKQSSSQQRRNFFFRRQRDISHSIVLPAAVSSAHPVPKHIKKPDYVTTGIVPDWGDSIEVKNEDQIQGLHQACQLARHVLLLAGKSLKVDMTTEEIDALVHREIISHNAYPSPLGYGGFPKSVCTSVNNVLCHGIPDSRPLQDGDIINIDVTVYYNGYHGDTSETFLVGNVDECGKKLVEVARRCRDEAIAACRAGAPFSVIGNTISHITHQNGFQVCPHFVGHGIGSYFHGHPEIWHHANDSDLPMEEGMAFTIEPIITEGSPEFKVLEDAWTVVSLDNQRSAQFEHTVLITSRGAQILTKLPHEA | 600 µM | 0.06 s⁻¹ |  | 
2 | recombinant human MetAP-2 (Homo sapiens) (protein) MAGVEEVAASGSHLNGDLDPDDREEGAASTAEEAAKKKRRKKKKSKGPSAAGEQEPDKESGASVDEVARQLERSALEDKERDEDDEDGDGDGDGATGKKKKKKKKKRGPKVQTDPPSVPICDLYPNGVFPKGQECEYPPTQDGRTAAWRTTSEEKKALDQASEEIWNDFREAAEAHRQVRKYVMSWIKPGMTMIEICEKLEDCSRKLIKENGLNAGLAFPTGCSLNNCAAHYTPNAGDTTVLQYDDICKIDFGTHISGRIIDCAFTVTFNPKYDTLLKAVKDATNTGIKCAGIDVRLCDVGEAIQEVMESYEVEIDGKTYQVKPIRNLNGHSIGQYRIHAGKTVPIVKGGEATRMEEGEVYAIETFGSTGKGVVHDDMECSHYMKNFDVGHVPIRLPRTKHLLNVINENFGTLAFCRRWLDRLGESKYLMALKNLCDLGIVDPYPPLCDIKGSYTAQFEHTILLRPTCKEVVSRGDDY |  |  | 300 µM | 2.3 s⁻¹
